Consider one substance from US20100285451A1.

For the test, the target named is Somatostatin 2 receptor-eYFP-α fusion (E. coli). In words: cell-based or functional assay.

With “somatostatin-14 (from UniProt P61278 103-116) (peptide)”, the EC50, arrestin assay (β-galactosidase complementation of β-arrestin-ω + GPCR-eYFP-α) came to 3 nM; the EC50, internalization assay (β-galactosidase complementation of FYVE-ω + GPCR-eYFP-α) stood at 7 nM; the fold induction, internalization assay amounted to 3 fold.
